For six molecules, Km, Vmax and kcat results are on record in US9969998B2, “Compositions of adenosine deaminase-2 (ADA2), variants thereof and methods of using same” (Halozyme, Inc., priority 2014, dated 2018).

The data set in a line: Kinetic assessment of adenosine deaminase activity (ammonia assay, Michaelis-Menten). In kind it is biochemical. To be noted: [E] = 8.5 nM. How it is done: Adenosine deaminase activity was determined by the measurement of ammonia released from adenosine when broken down to inosine. Ammonia was measured using a commercially available Ammonia Assay kit (Cat. No. AA0100, Sigma-Aldrich, St. Louis, Mo.). The kit contains dry reagents containing α-ketoglutaric acid and NADPH, which were reconstituted with 5 mL water prior to use in the assay. Ammonia reacts with α-ketogluaric acid (KGA) and reduced nicotinamide adenine dinucleotide phosphate (NADPH) in the presence of L-glutamate dehydrogenase (GDH).
Kinetics parameters of rHuADA2 WT and variants were compared using this assay at different adenosine concentrations at pH 7.6 and 6.5. Adenosine concentrations ranging from 20 μM to 20 mM were used. Sub-molar concentration of adenosine stock was prepared in 1N NaOH.
For the enzymatic assays at pH 7.6, adenosine was serially diluted with 100 mM sodium acetate (NaOAc), pH 4.9. A 2× reaction mixture was prepared, containing reconstituted ammonia assay reagent (containing about 4 mM α-ketoglutarate and about 300 μM NADPH), WT rHuADA2 or variants at 1 μg/mL (17 nM) and glutamate dehydrogenase (GDH, 1:50 dilution). 85 μL of adenosine was added to 85 μL 2× mixture in duplicate in a UV-transparent half-area plate. The change in absorbance (ΔA) at 340 nm over time at room temperature was monitored.
For the enzymatic assay at pH 6.5, adenosine was serially diluted with 200 mM piperazine-N,N′-bis(2-ethanesulfonic acid) (PIPES), pH 6.5. A 2× reaction mixture in 200 mM PIPES, pH 6.5 was prepared, containing 4 mM α-ketoglutarate, 300 μM NADPH, 1 μg/mL (17 nM) rHuADA2 or variants and 50 U/mL GDH (Cat No. G2626, Sigma-Aldrich). The enzymatic reaction was initiated by adding equal volume of adenosine to the 2× mixture in a UV-transparent half-area plate as described above, and the change in absorbance (AA) at 340 nm over time at room temperature was monitored.
Adenosine deaminase activity in mU/mL (μM/min equivalent) was calculated using the following formula: 1 mU/mL=−(−ΔA/min×Tv)/(Sv×ϵ×1) • where Tv=total volume (170 μL), Sv=sample volume (85 μL), ϵ=6.22×10^−3 μM^−1 cm^−1, 1=1 cm.
The activity data were fitted with non-linear regression of Michaelis-Menten equation using Graphpad Prism software to obtain Km and Vmax. Other kinetics parameters such as kcat and kcat/Km were also determined.

B1: K374D/C108-T150del→(GGGGS)3 (protein)
chain: IDETRAHLLLKEKMMRLGGRLVLNTKEELANERLMTLKIAEMKEAMRTLIFPPSMHFFQAKHLIERSQVFNILRMMPKGAALHLHDIGIVTMDWLVRNVTYRPHGGGGSGGGGSGGGGSEFDDSLLRNFTLVTQHPEVIYTNQNVVWSKFETIFFTISGLIHYAPVFRDYVFRSMQEFYEDNVLYMEIRARLLPVYELSGEHHDEEWSVKTYQEVAQKFVETHPEFIGIKIIYSDHRSKDVAVIAESIRMAMGLRIKFPTVVAGFDLVGHEDTGHSLHDYKEALMIPAKDGVKLPYFFHAGETDWQGTSIDRNILDALMLNTTRIGHGFALSKHPAVRTYSWDKDIPIEVCPISNQVLKLVSDLRNHPVATLMATGHPMVISSDDPAMFGAKGLSYDFYEVFMGIGGMKADLRTLKQLAMNSIKYSTLLESEKNTFMEIWKKRWDKFIADVATK
modifications: C108-T150 replaced by (GGGGS)3; human ADA2 K371D/C105-T147del->(GGGGS)3, mature numbering
Consider B1, for which, for the setting “pH 7.6”, the Km (as a rule, the concentration of substrate that gives half-maximal velocity) worked out at 770 µM; the Vmax (commonly the top rate of the reaction or transport when substrate is in excess) came to 38.12 µM/min; the turnover number (kcat) (as a rule, the number of substrate molecules converted per active site and unit of time at saturation) was 74.75 s⁻¹.

B2: K374D/V102-Q147del→(GGGGS)3 (protein)
chain: IDETRAHLLLKEKMMRLGGRLVLNTKEELANERLMTLKIAEMKEAMRTLIFPPSMHFFQAKHLIERSQVFNILRMMPKGAALHLHDIGIVTMDWLVRNGGGGSGGGGSGGGGSNVTEFDDSLLRNFTLVTQHPEVIYTNQNVVWSKFETIFFTISGLIHYAPVFRDYVFRSMQEFYEDNVLYMEIRARLLPVYELSGEHHDEEWSVKTYQEVAQKFVETHPEFIGIKIIYSDHRSKDVAVIAESIRMAMGLRIKFPTVVAGFDLVGHEDTGHSLHDYKEALMIPAKDGVKLPYFFHAGETDWQGTSIDRNILDALMLNTTRIGHGFALSKHPAVRTYSWDKDIPIEVCPISNQVLKLVSDLRNHPVATLMATGHPMVISSDDPAMFGAKGLSYDFYEVFMGIGGMKADLRTLKQLAMNSIKYSTLLESEKNTFMEIWKKRWDKFIADVATK
modifications: (GGGGS)3 linker replaces deleted region; human ADA2 K371D/V99-Q144del->(GGGGS)3, mature numbering
For the molecule B2, where the note is “pH 7.6”, the Km amounted to 820 µM, the Vmax amounted to 43.01 µM/min and the kcat was determined as 84.33 s⁻¹.

B3: K374D/C108-T150del→(GGGGS)1 (protein)
chain: IDETRAHLLLKEKMMRLGGRLVLNTKEELANERLMTLKIAEMKEAMRTLIFPPSMHFFQAKHLIERSQVFNILRMMPKGAALHLHDIGIVTMDWLVRNVTYRPHGGGGSEFDDSLLRNFTLVTQHPEVIYTNQNVVWSKFETIFFTISGLIHYAPVFRDYVFRSMQEFYEDNVLYMEIRARLLPVYELSGEHHDEEWSVKTYQEVAQKFVETHPEFIGIKIIYSDHRSKDVAVIAESIRMAMGLRIKFPTVVAGFDLVGHEDTGHSLHDYKEALMIPAKDGVKLPYFFHAGETDWQGTSIDRNILDALMLNTTRIGHGFALSKHPAVRTYSWDKDIPIEVCPISNQVLKLVSDLRNHPVATLMATGHPMVISSDDPAMFGAKGLSYDFYEVFMGIGGMKADLRTLKQLAMNSIKYSTLLESEKNTFMEIWKKRWDKFIADVATK
modifications: C108-T150 replaced by GGGGS linker; human ADA2 K371D/C105-T147del->(GGGGS)1, mature numbering
As for B3, under “pH 7.6”, the Km was 910 µM, the maximal velocity (Vmax) turned out to be 43.1 µM/min and the kcat stood at 84.51 s⁻¹.

B4: R222Q/S265N/K374D/R23E: ADA2 combination variant SEQ ID NO:272 (protein)
chain: IDETRAHLLLKEKMMRLGGELVLNTKEELANERLMTLKIAEMKEAMRTLIFPPSMHFFQAKHLIERSQVFNILRMMPKGAALHLHDIGIVTMDWLVRNVTYRPHCHICFTPRGIMQFRFAHPTPRPSEKCSKWILLEDYRKRVQNVTEFDDSLLRNFTLVTQHPEVIYTNQNVVWSKFETIFFTISGLIHYAPVFRDYVFRSMQEFYEDNVLYMEIRAQLLPVYELSGEHHDEEWSVKTYQEVAQKFVETHPEFIGIKIIYNDHRSKDVAVIAESIRMAMGLRIKFPTVVAGFDLVGHEDTGHSLHDYKEALMIPAKDGVKLPYFFHAGETDWQGTSIDRNILDALMLNTTRIGHGFALSKHPAVRTYSWDKDIPIEVCPISNQVLKLVSDLRNHPVATLMATGHPMVISSDDPAMFGAKGLSYDFYEVFMGIGGMKADLRTLKQLAMNSIKYSTLLESEKNTFMEIWKKRWDKFIADVATK
modifications: human ADA2 R219Q/S262N/K371D/R20E, mature numbering
Regarding B4, the Michaelis-Menten constant (Km) was 810 µM (pH 6.5) and 1230 µM (pH 7.6). The maximum rate (Vmax) (pH 6.5) was found to be 45.78 µM/min and the Vmax (pH 7.6) turned out to be 72.58 µM/min. In addition, the kcat was 89.76 s⁻¹ (pH 6.5, kcat=Vmax/0.0085/60) and 142.31 s⁻¹ (pH 7.6, kcat=Vmax/0.0085/60).

B5: K374D/C108-T150del→(GGGGS)2 (protein)
chain: IDETRAHLLLKEKMMRLGGRLVLNTKEELANERLMTLKIAEMKEAMRTLIFPPSMHFFQAKHLIERSQVFNILRMMPKGAALHLHDIGIVTMDWLVRNVTYRPHGGGGSGGGGSEFDDSLLRNFTLVTQHPEVIYTNQNVVWSKFETIFFTISGLIHYAPVFRDYVFRSMQEFYEDNVLYMEIRARLLPVYELSGEHHDEEWSVKTYQEVAQKFVETHPEFIGIKIIYSDHRSKDVAVIAESIRMAMGLRIKFPTVVAGFDLVGHEDTGHSLHDYKEALMIPAKDGVKLPYFFHAGETDWQGTSIDRNILDALMLNTTRIGHGFALSKHPAVRTYSWDKDIPIEVCPISNQVLKLVSDLRNHPVATLMATGHPMVISSDDPAMFGAKGLSYDFYEVFMGIGGMKADLRTLKQLAMNSIKYSTLLESEKNTFMEIWKKRWDKFIADVATK
modifications: C108-T150 replaced by (GGGGS)2; human ADA2 K371D/C105-T147del->(GGGGS)2, mature numbering
For B5, under “pH 7.6”, the Km is 850 µM, the Vmax was found to be 36.92 µM/min and the turnover number (kcat) is 72.39 s⁻¹.

B6: K374D/V102-Q147del→(GGGGS)1 (protein)
chain: IDETRAHLLLKEKMMRLGGRLVLNTKEELANERLMTLKIAEMKEAMRTLIFPPSMHFFQAKHLIERSQVFNILRMMPKGAALHLHDIGIVTMDWLVRNGGGGSNVTEFDDSLLRNFTLVTQHPEVIYTNQNVVWSKFETIFFTISGLIHYAPVFRDYVFRSMQEFYEDNVLYMEIRARLLPVYELSGEHHDEEWSVKTYQEVAQKFVETHPEFIGIKIIYSDHRSKDVAVIAESIRMAMGLRIKFPTVVAGFDLVGHEDTGHSLHDYKEALMIPAKDGVKLPYFFHAGETDWQGTSIDRNILDALMLNTTRIGHGFALSKHPAVRTYSWDKDIPIEVCPISNQVLKLVSDLRNHPVATLMATGHPMVISSDDPAMFGAKGLSYDFYEVFMGIGGMKADLRTLKQLAMNSIKYSTLLESEKNTFMEIWKKRWDKFIADVATK
modifications: V102-Q147 replaced by (GGGGS)1; human ADA2 K371D/V99-Q144del->(GGGGS)1, mature numbering
In the case of B6, where the note is “pH 7.6”, the Km is 890 µM, the maximal velocity (Vmax) came out at 43.46 µM/min and the turnover number (kcat) turned out to be 85.22 s⁻¹.
